Data: the supplement of paper PMC10567573

B1: FBF1 (parent)
chain: FGDSPKAEKRQIGDQEGPRPARST
B2: INTS3 (parent)
chain: DLNSKGKKREFRFHPIKETVVEEP

Variants of: B1
Assay: protein stability index of a GFP-peptide fusion (GPS, HEK-293T) (PSI 1-6); higher = more stable
Conditions: c terminus: a fixed tail appended
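Further: lentivirally expressed fusions sorted by FACS into six bins by GFP to DsRed ratio, PSI derived from sequencing read proportions per bin multiplied by bin number.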

Compared with FGDSPKAEKRQIGDQEGPRPARSH, FGDSPKAEKRQIGDQEGPRPARSY is lower in protein stability index: 4.98 for the first, 4.74 for the second.

First: FGDSPKAEKRQIGDQEGPRPARSW
Second: FGDSPKAEKRQIGDQEGPRPARSQ
The protein stability index of the first is lower: 4.34 for the first, 5.62 for the second.

Compared with FGDSPKAEKRQIGDQEGPRPARSN, FGDSPKAEKRQIGDQEGPRPARSE is lower in protein stability index: 5.34 for the first, 5.3 for the second.

First: FGDSPKAEKRQIGDQEGPRPARSF
Second: FGDSPKAEKRQIGDQEGPRPARSA
The protein stability index of the first is lower: 4.83 for the first, 4.91 for the second.

First: FGDSPKAEKRQIGDQEGPRPARSR
Second: FGDSPKAEKRQIGDQEGPRPARSC
The protein stability index of the first is lower: 4.68 for the first, 4.96 for the second.

Going from FGDSPKAEKRQIGDQEGPRPARSV to FGDSPKAEKRQIGDQEGPRPARSD, the protein stability index falls from 4.67 to 4.52.

Compared with FGDSPKAEKRQIGDQEGPRPARSI, FGDSPKAEKRQIGDQEGPRPARSM is higher in protein stability index: 4.45 for the first, 4.81 for the second.

First: FGDSPKAEKRQIGDQEGPRPARSP
Second: FGDSPKAEKRQIGDQEGPRIARST
The protein stability index of the first is higher: 5.25 for the first, 4.84 for the second.

Going from FGDSPKAEKRQIGDQEGPRRARST to FGDSPKAEKRQIGDQEGPRQARST, the protein stability index rises from 5.26 to 5.39.

Compared with FGDSPKAEKRQIGDQEGPRNARST, FGDSPKAEKRQIGDQEGPRWARST is lower in protein stability index: 4.89 for the first, 4.58 for the second.

First: FGDSPKAEKRQIGDQEGPRTARST
Second: FGDSPKAEKRQIGDQEGPRLARST
The protein stability index of the first is higher: 5.08 for the first, 4.46 for the second.

First: FGDSPKAEKRQIGDQEGPRSARST
Second: FGDSPKAEKRQIGDQEGPRKARST
The protein stability index of the first is higher: 5.02 for the first, 4.72 for the second.

Compared with FGDSPKAEKRQIGDQEGPRVARST, FGDSPKAEKRQIGDQEGPRYARST is higher in protein stability index: 4.54 for the first, 4.91 for the second.

Going from FGDSPKAEKRQIGDQEGPRMARST to FGDSPKAEKRQIGDQEGPRPACST, the protein stability index rises from 4.96 to 5.26.

First: FGDSPKAEKRQIGDQEGPRPATST
Second: FGDSPKAEKRQIGDQEGPRPANST
The protein stability index of the first is lower: 4.8 for the first, 5.66 for the second.

First: FGDSPKAEKRQIGDQEGPRPAFST
Second: FGDSPKAEKRQIGDQEGPRPALST
The protein stability index of the first is lower: 4.49 for the first, 5.38 for the second.

First: FGDSPKAEKRQIGDQEGPRPAMST
Second: FGDSPKAEKRQIGDQEGPRPAAST
The protein stability index of the first is higher: 5.72 for the first, 5.15 for the second.

First: FGDSPKAEKRQIGDQEGPRPAEST
Second: FGDSPKAEKRQIGDQEGPRPAKST
The protein stability index of the first is lower: 4.79 for the first, 4.92 for the second.

Compared with FGDSPKAEKRQIGDQEGPRPAWST, FGDSPKAEKRQIGDQEGPRPAHST is higher in protein stability index: 3.86 for the first, 4.97 for the second.

First: FGDSPKAEKRQIGDQEGPRPAPST
Second: FGDSPKAEKRQIGDQEGPRPADST
The protein stability index of the first is higher: 5.64 for the first, 5.27 for the second.

First: FGDSPKAEKRQIGDQEGPRPAGST
Second: FGDSPKAEKRQIGDQEGPRPAIST
The protein stability index of the first is lower: 4.92 for the first, 5.46 for the second.

Compared with FGDSPKAEKRQIGDQEGPRPAQST, FGDSPKAEKRQIGDQEGPRPASST is higher in protein stability index: 5.16 for the first, 5.4 for the second.

Compared with FGDSPKAEKRQIGDQEGPRPARYT, FGDSPKAEKRQIGDQEGPRPARGT is higher in protein stability index: 5.37 for the first, 5.7 for the second.

Compared with FGDSPKAEKRQIGDQEGPRPARTT, FGDSPKAEKRQIGDQEGPRPARNT is higher in protein stability index: 5.12 for the first, 5.5 for the second.

First: FGDSPKAEKRQIGDQEGPRPARLT
Second: FGDSPKAEKRQIGDQEGPRPARVT
The protein stability index of the first is lower: 4.98 for the first, 5 for the second.

First: FGDSPKAEKRQIGDQEGPRPARMT
Second: FGDSPKAEKRQIGDQEGPRPARHT
The protein stability index of the first is lower: 5.01 for the first, 5.53 for the second.

Going from FGDSPKAEKRQIGDQEGPRPARAT to FGDSPKAEKRQIGDQEGPRPARPT, the protein stability index falls from 5.25 to 4.67.

First: FGDSPKAEKRQIGDQEGPRPARKT
Second: FGDSPKAEKRQIGDQEGPRPARDT
The protein stability index of the first is lower: 4.29 for the first, 5.31 for the second.

First: FGDSPKAEKRQIGDQEGPRPARIT
Second: FGDSPKAEKRQIGDQEGPRPARCT
The protein stability index of the first is lower: 4.57 for the first, 4.66 for the second.

Going from FGDSPKAEKRQIGDQEGPRPARET to FGDSPKAEKRQIGDQEGPRPARRT, the protein stability index falls from 5.03 to 4.78.

Going from FGDSPKAEKRQIGDQEGPRPHRST to FGDSPKAEKRQIGDQEGPRPYRST, the protein stability index falls from 4.93 to 4.86.

Compared with FGDSPKAEKRQIGDQEGPRPGRST, FGDSPKAEKRQIGDQEGPRPSRST is lower in protein stability index: 5.73 for the first, 4.37 for the second.

First: FGDSPKAEKRQIGDQEGPRPMRST
Second: FGDSPKAEKRQIGDQEGPRPKRST
The protein stability index of the first is lower: 4.92 for the first, 5.23 for the second.

Compared with FGDSPKAEKRQIGDQEGPRPIRST, FGDSPKAEKRQIGDQEGPRPNRST is higher in protein stability index: 4.77 for the first, 5.34 for the second.

First: FGDSPKAEKRQIGDQEGPRPCRST
Second: FGDSPKAEKRQIGDQEGPRPFRST
The protein stability index of the first is higher: 5.2 for the first, 4.52 for the second.

First: FGDSPKAEKRQIGDQEGPRPRRST
Second: FGDSPKAEKRQIGDQEGPRPPRST
The protein stability index of the first is lower: 4.59 for the first, 5.19 for the second.

Compared with FGDSPKAEKRQIGDQEGPRPVRST, FGDSPKAEKRQIGDQEGPRPLRST is lower in protein stability index: 5.42 for the first, 4.17 for the second.

Going from FGDSPKAEKRQIGDQEGPRPTRST to FGDSPKAEKRQIGDQEGPRPQRST, the protein stability index falls from 5.9 to 5.62.

In the case of FGDSPKAEKRQIGDQEGPRPDRST, the protein stability index is reported as 5.5.

Variants of: B2
Assay: as above
Conditions: c terminus: a fixed tail appended

Going from DDNSKGKKREFRFHPIKETVVEEP to DENSKGKKREFRFHPIKETVVEEP, the protein stability index falls from 2.82 to 2.26.

Compared with DPNSKGKKREFRFHPIKETVVEEP, DVNSKGKKREFRFHPIKETVVEEP is higher in protein stability index: 2.74 for the first, 3.25 for the second.

Going from DMNSKGKKREFRFHPIKETVVEEP to DYNSKGKKREFRFHPIKETVVEEP, the protein stability index rises from 1.81 to 1.89.

Going from DGNSKGKKREFRFHPIKETVVEEP to DTNSKGKKREFRFHPIKETVVEEP, the protein stability index falls from 2.8 to 2.28.

Compared with DRNSKGKKREFRFHPIKETVVEEP, DKNSKGKKREFRFHPIKETVVEEP is lower in protein stability index: 2.34 for the first, 2.09 for the second.

Going from DQNSKGKKREFRFHPIKETVVEEP to DWNSKGKKREFRFHPIKETVVEEP, the protein stability index falls from 2.69 to 1.9.

Going from DSNSKGKKREFRFHPIKETVVEEP to DANSKGKKREFRFHPIKETVVEEP, the protein stability index falls from 2.89 to 2.73.

First: DINSKGKKREFRFHPIKETVVEEP
Second: DHNSKGKKREFRFHPIKETVVEEP
The protein stability index of the first is higher: 2.36 for the first, 2 for the second.

In the case of DNNSKGKKREFRFHPIKETVVEEP, the protein stability index is reported as 2.96.
